Test results as given in patent US20150335669A1 (SAMSUNG ELECTRONICS, published 2015).

Columns and labels:
[1] = molecular target: T1, human c-Met/Fc fusion protein (R&D Systems) (human, UniProt P08581 25-932); experiment: SPR, Biacore T100; antibody captured by human Fab binder on CM5 chip, c-Met-Fc injected
T1 construct: Bought reagent; treated here as the same reagent; also called c-Met-Fc (#358-MT/CF, R&D Systems); human c-Met/Fc protein; not shown: Fc part of the bought fusion protein
Experimental: To confirm whether the prepared PEG-introduced antibodies containing PEG with various molecular weights can maintain the binding affinity to the antigen, the binding affinity of the prepared PEG-introduced antibodies to c-Met was measured using Biacore T100(GE) and compared with that of an antibody with no PEG (Ab).
In particular, human Fab binder (GE Healthcare) was fixed on a surface of CM5 chip (#BR-1005-30, GE) according to the manufacturer's manual. About 90 to 120 Ru of each of the PEG-introduced antibodies was captured, and c-Met-Fc (#358-MT/CF, R&D Systems) was injected at various concentrations into the captured PEG-introduced antibody. 10 mM Glycine-HCl (pH 1.5) solution was injected thereto to regenerate the surface. In order to measure affinity, the data obtained from this experiment was fitted using BIAevaluation software (GE Healthcare, Biacore T100 evaluation software).

[2] = molecular target: T1, human c-Met/Fc fusion protein (R&D …); experiment: ELISA, human c-Met/Fc fusion protein coated on the plate, hybridoma culture supernatant
Experimental: The hybridoma cell culture obtained in Reference Example 1.1.2 was added in an amount of 50 μL to each well of the plates and incubated for 1 hour. The cells remaining unreacted were washed out with a sufficient amount of Tris-buffered saline and Tween 20 (TBST). Goat anti-mouse IgG-horseradish peroxidase (HRP) was added to the plates and incubated for 1 hour at room temperature. The plates were washed with a sufficient amount of TBST, followed by reacting the peroxidase with a substrate (OPD). Absorbance at 450 nm was measured on an ELISA reader.

T1 sequence (P08581 25-932 limits assumed): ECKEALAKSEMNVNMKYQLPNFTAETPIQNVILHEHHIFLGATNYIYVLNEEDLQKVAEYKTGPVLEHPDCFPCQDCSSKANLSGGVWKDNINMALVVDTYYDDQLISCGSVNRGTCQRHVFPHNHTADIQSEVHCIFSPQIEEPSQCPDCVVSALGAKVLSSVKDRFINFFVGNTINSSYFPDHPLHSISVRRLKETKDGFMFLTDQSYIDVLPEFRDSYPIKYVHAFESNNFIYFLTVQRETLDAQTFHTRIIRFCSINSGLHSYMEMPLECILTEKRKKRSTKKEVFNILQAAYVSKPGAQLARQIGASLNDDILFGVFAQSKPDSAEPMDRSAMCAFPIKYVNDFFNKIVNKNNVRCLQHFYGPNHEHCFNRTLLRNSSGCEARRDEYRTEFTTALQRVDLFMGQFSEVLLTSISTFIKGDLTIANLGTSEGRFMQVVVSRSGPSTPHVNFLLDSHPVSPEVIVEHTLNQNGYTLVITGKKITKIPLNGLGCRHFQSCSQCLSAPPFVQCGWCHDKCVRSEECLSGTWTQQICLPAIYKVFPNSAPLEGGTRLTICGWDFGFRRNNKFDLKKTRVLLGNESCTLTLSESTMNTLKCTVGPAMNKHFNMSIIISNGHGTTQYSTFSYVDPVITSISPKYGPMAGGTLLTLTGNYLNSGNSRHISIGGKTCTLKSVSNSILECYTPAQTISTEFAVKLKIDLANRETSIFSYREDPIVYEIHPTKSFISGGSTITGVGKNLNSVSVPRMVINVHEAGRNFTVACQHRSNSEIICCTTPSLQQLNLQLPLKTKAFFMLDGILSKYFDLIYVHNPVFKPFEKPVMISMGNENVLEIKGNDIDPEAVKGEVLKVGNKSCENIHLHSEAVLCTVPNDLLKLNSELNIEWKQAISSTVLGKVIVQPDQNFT

Row | Binder | Kd [1] | binding result [2]
1 | PEG-introduced antibody L3-1Y/IgG2 with 30 kDa polyethyleneglycol (antibody, V domains shown, see heavy chain: the PEG may stand at the N-terminus of a light chain instead; 30 kDa methoxypolyethyleneglycol at the N-terminus of the antibody (N-terminus of a heavy chain or of a light chain; which one is not resolved); mono-PEG per paragraph 213, also called 30kPEG Ab; mono-PEG antibody (30 kDa)) VH: EVQLVESGGGLVQPGGSLRLSCAASGFTFTDYYMSWVRQAPGKGLEWLGFIRNKANGYTTEYSASVKGRFTISRDNSKNTLYLQMNSLRAEDTAVYYCARDNWFAYWGQGTLVTVSS VL: DIQMTQSPSSLSASVGDRVTITCKSSQSLLASGNQNNYLAWYQQKPGKAPKMLIIWASTRVSGVPSRFSGSGSGTDFTLTISSLQPEDFATYYCQQSYSRPYTFGQGTKVEIKR | 0.0619 nM | 
2 | PEG-introduced antibody L3-1Y/IgG2 with 20 kDa polyethyleneglycol (antibody, V domains shown, see heavy chain: the PEG may stand at the N-terminus of a light chain instead; 20 kDa methoxypolyethyleneglycol at the N-terminus of the antibody (N-terminus of a heavy chain or of a light chain; which one is not resolved); mono-PEG per paragraph 213, also called 20kPEG Ab; mono-PEG antibody (20 kDa)) VH: EVQLVESGGGLVQPGGSLRLSCAASGFTFTDYYMSWVRQAPGKGLEWLGFIRNKANGYTTEYSASVKGRFTISRDNSKNTLYLQMNSLRAEDTAVYYCARDNWFAYWGQGTLVTVSS VL: DIQMTQSPSSLSASVGDRVTITCKSSQSLLASGNQNNYLAWYQQKPGKAPKMLIIWASTRVSGVPSRFSGSGSGTDFTLTISSLQPEDFATYYCQQSYSRPYTFGQGTKVEIKR | 0.0729 nM | 
3 | PEG-introduced antibody L3-1Y/IgG2 with 10 kDa polyethyleneglycol (antibody, V domains shown, see heavy chain: the PEG may stand at the N-terminus of a light chain instead; 10 kDa methoxypolyethyleneglycol at the N-terminus of the antibody (N-terminus of a heavy chain or of a light chain; which one is not resolved); mono-PEG per paragraph 213, also called 10kPEG Ab; mono-PEG antibody (10 kDa)) VH: EVQLVESGGGLVQPGGSLRLSCAASGFTFTDYYMSWVRQAPGKGLEWLGFIRNKANGYTTEYSASVKGRFTISRDNSKNTLYLQMNSLRAEDTAVYYCARDNWFAYWGQGTLVTVSS VL: DIQMTQSPSSLSASVGDRVTITCKSSQSLLASGNQNNYLAWYQQKPGKAPKMLIIWASTRVSGVPSRFSGSGSGTDFTLTISSLQPEDFATYYCQQSYSRPYTFGQGTKVEIKR | 0.0859 nM | 

Results, then the binder that gave them:

Row | Kd [1] | binding result [2] | Binder
4 | 0.0823 nM |  | anti-c-Met antibody L3-1Y-IgG2 (huAbF46-H4-A1 (IgG2 Fc)) (antibody, V domains shown, also called antibody with no PEG) VH: EVQLVESGGGLVQPGGSLRLSCAASGFTFTDYYMSWVRQAPGKGLEWLGFIRNKANGYTTEYSASVKGRFTISRDNSKNTLYLQMNSLRAEDTAVYYCARDNWFAYWGQGTLVTVSS VL: DIQMTQSPSSLSASVGDRVTITCKSSQSLLASGNQNNYLAWYQQKPGKAPKMLIIWASTRVSGVPSRFSGSGSGTDFTLTISSLQPEDFATYYCQQSYSRPYTFGQGTKVEIKR
5 |  | binds | AbF46, mouse monoclonal antibody to c-Met (hybridoma KCLRF-BP-00220) (antibody, V domains shown, Tested as hybridoma culture supernatant in the selection ELISA; also called mouse antibody AbF46) VH: EVKLVESGGGLVQPGGSLRLSCATSGFTFTDYYMSWVRQPPGKALEWLGFIRNKANGYTTEYSASVKGRFTISRDNSQSILYLQMDTLRAEDSATYYCARDNWFAYWGQGTLVTVSA VL: DILMTQSPSSLTVSAGEKVTMSCKSSQSLLASGNQNNYLAWHQQKPGRSPKMLIIWASTRVSGVPDRFIGSGSGTDFTLTINSVQAEDLAVYYCQQSYSAPLTFGAGTKLELK
